We go through two molecules from paper PMC3979106 (Structure(London, England:1993), 2014).

Residue numbers refer to the chain shown, from its start.

One assay has as its target Ube2T (Homo sapiens) (UniProt Q9NPD8). The settings on record: cited from earlier work.
The next assay deals with T1, Human Ube2T Ser5Arg (human, UniProt Q9NPD8 1-197, Ser5Arg).
T1 construct: Ube2T, human, point mutant; also called Ser5Arg-Ube2T; source: E. coli, expressed as WT protein, purified; not shown: 6xHis-Smt3, N-terminal, cleaved
T1 sequence (looked up): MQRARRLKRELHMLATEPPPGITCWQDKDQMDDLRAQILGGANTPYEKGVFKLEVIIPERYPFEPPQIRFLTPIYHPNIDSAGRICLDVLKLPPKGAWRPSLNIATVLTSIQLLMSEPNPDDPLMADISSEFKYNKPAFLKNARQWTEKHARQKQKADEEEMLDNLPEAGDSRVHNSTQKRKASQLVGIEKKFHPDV
Kind of assay: SEC; analytical size-exclusion chromatography, Superdex 75 10/300; RING domain and one E2 incubated 1 hr on ice in 0.1 M NaCl, 0.1 M Tris pH 8, 250 μM TCEP; complex read as a peak shift to the left. The settings on record: both partners purified. A general note: Size exclusion chromatography separates by hydrodynamic size, large species first.

The target in assay [1] is T2, Human Ube2T Arg99Ser/Ser101Arg (human, UniProt Q9NPD8 1-197, Arg99Ser | Ser101Arg).
T2 construct: Ube2T, human, double point mutant; also called Arg99Ser/Ser101Arg-Ube2T; source: E. coli, expressed as WT protein, purified; not shown: 6xHis-Smt3, N-terminal, cleaved
T2 sequence (looked up): T1 sequence (looked up) with R5S, R99S, S101R
The description is as above. The settings on record: both partners purified.

Turning to FANCL (from UniProt Q9NW38), in the assay with Ube2T (Homo sapiens), the Kd is 500 nM.

B1: Human FANCL RING domain (residues 289–375) (domain or fragment, UniProt Q9NW38 289-375, looked up)
chain: EIDFPARAILEKSDFTMDCGICYAYQLDGTIPDQVCDNSQCGQPFHQICLYEWLRGLLTSRQSFNIIFGECPYCSKPITLKMSGRKH
notes: FANCL, human, RING domain, residues 289-375, cloned from synthetic codon-optimised human FANCL DNA (GeneArt); also called WT RING; source: E. coli BL21, purified (Ni-NTA, Ulp1 cleavage, Superdex); not shown: 6xHis-Smt3, N-terminal, cleaved
For the molecule B1, the binding result (with Human Ube2T Ser5Arg; in assay [1]) was “binds” throughout.

One may read the Kd as the concentration at which binding is half-saturated.
